Data published in the supplement of paper PMC7877785.
± gives the uncertainty stated by the source.

Assay: self-splicing fitness, log relative to wild type (ln ratio); higher = more splicing; Tetrahymena group I intron in knt gene, E. coli kanamycin selection, DiMSum; sequences stand for … in CUCUCU…GGAGGGAAAAGUUAUCAGGCAUGCACCUGGUAGCUAGUCUUUAAACCAAUAGAUUGCAUCGGUUUAAAAGGCAAGACCGUCAAAUUGCGGGAAAGGGGUCAACAGCCGUUCAGUACCAAGUCUCAGGGGAAACUUUGAGAUGGCCUUGCAAAGGGUAUGGUAAUAAGCUGACGGACAUGGUCCUAACCACGCAGCCAAGUCCUAAGUCAACAGAUCUUCUGUUGAUAUGGAUGCAGUUCACAGACUAAAUGUCGGUCGGGGAAGAUGUAUUCUUCUCAUAAGAUAUAGUCGGACCUCUCCUUAAUGGGAGCUAGCGGAUGAAGUGAUGCAACACUGGAGCCGCUGGGAACUAAUUUGUAUGCGAAAGUAUAUUGAUUAGUUUUGGAGUACUCGUGGUCG
In short: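 Fitness was computed with DiMSum as the error-weighted combination of replicate fold changes, kanamycin versus none, each normalised to wild type. The library randomised all eight intron nucleotides of the P1ex region, with the intron placed in the knt kanamycin-resistance gene on pET-22b(+) in E. coli BL21(DE3). Six replicate transformations were grown overnight at 37°C or 30°C on LB agar with or without 25 μg/mL kanamycin, plus 100 μg/mL carbenicillin, 50 μM IPTG and 0.2% rhamnose. Pooled colonies were amplicon-sequenced on an Illumina HiSeq 2500.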

| Sequence | self-splicing fitness (ln) (30 °C) | self-splicing fitness (ln) (37 °C) |
| --- | --- | --- |
| GGAUAGCAAUAUUACGGGUC | -4.23 ± 0.46 | -2.64 ± 0.29 |
| GGAUAGCAAUAUUACGUCCA | -1.4 ± 0.17 | -0.317 ± 0.19 |
| GGAUAGCAAUAUUACGUGAC | -2.63 ± 0.35 | -1.46 ± 0.26 |
| GGAUAGCAAUAUUACGUGCA | -1.3 ± 0.11 | 0.203 ± 0.12 |
| GGAUAGCAAUAUUACGUUAU | -4.06 ± 0.24 | -3.28 ± 0.23 |
| GGAUAGCAAUAUUACGUUUA | -1.02 ± 0.16 | 0.714 ± 0.14 |
| GGCAAGCAAUAUUACGAGAA | -1.8 ± 0.29 | -1.74 ± 0.26 |
| GGCAAGCAAUAUUACGAGAG | -3.94 ± 0.24 | -2.26 ± 0.15 |
| GGCAAGCAAUAUUACGAGAU | -2.56 ± 0.21 | -0.168 ± 0.15 |
| GGCAAGCAAUAUUACGAGCA | -0.434 ± 0.13 | -0.381 ± 0.14 |
| GGCAAGCAAUAUUACGCGGG | -3.73 ± 0.21 | -3.23 ± 0.26 |
| GGCAAGCAAUAUUACGGAAC | -1.46 ± 0.13 | 0.485 ± 0.21 |
| GGCAAGCAAUAUUACGGACU | 0.0032 ± 0.071 | 0.777 ± 0.096 |
| GGCAAGCAAUAUUACGGAGC | -1.36 ± 0.2 | 0.0393 ± 0.25 |
| GGCAAGCAAUAUUACGGGAA | -1.34 ± 0.12 | -1.16 ± 0.13 |
| GGCAAGCAAUAUUACGGUAC | -0.729 ± 0.072 | -0.752 ± 0.09 |
| GGCAAGCAAUAUUACGUACU | -0.208 ± 0.072 | 0.344 ± 0.088 |
| GGCAAGCAAUAUUACGUCAA | -1.84 ± 0.14 | -0.756 ± 0.12 |
| GGCAAGCAAUAUUACGUCGA | -0.765 ± 0.13 | -0.561 ± 0.13 |
| GGCAAGCAAUAUUACGUCUG | -3.13 ± 0.18 | -1.09 ± 0.094 |
| GGCAAGCAAUAUUACGUGUU | -1.96 ± 0.059 | -1.83 ± 0.076 |
| GGCAAGCAAUAUUACGUUCC | -1.43 ± 0.11 | -0.714 ± 0.14 |
| GGCAAGCAAUAUUACGUUCG | -0.0493 ± 0.065 | -0.196 ± 0.08 |
| GGCAAGCAAUAUUACGUUUU | -0.0842 ± 0.054 | 0.186 ± 0.082 |
| GGCCAGCAAUAUUACGAAGG | – | -2.62 ± 0.33 |

| Sequence | self-splicing fitness (ln) (30 °C) | self-splicing fitness (ln) (37 °C) |
| --- | --- | --- |
| GGCCAGCAAUAUUACGAAUC | -0.266 ± 0.11 | 0.822 ± 0.14 |
| GGCCAGCAAUAUUACGAGAU | -2.68 ± 0.18 | -2.82 ± 0.24 |
| GGCCAGCAAUAUUACGAGGA | – | -1.26 ± 0.15 |
| GGCCAGCAAUAUUACGAGGU | -3.26 ± 0.45 | -2.45 ± 0.32 |
| GGCCAGCAAUAUUACGAGUA | -2.59 ± 0.12 | -2.05 ± 0.12 |
| GGCCAGCAAUAUUACGAUAU | -1.67 ± 0.08 | -1.78 ± 0.1 |
| GGCCAGCAAUAUUACGCAUA | -1.52 ± 0.095 | -0.945 ± 0.12 |
| GGCCAGCAAUAUUACGCGGG | -3.29 ± 0.48 | -3.29 ± 0.37 |
| GGCCAGCAAUAUUACGCGUA | -1.07 ± 0.11 | -0.484 ± 0.1 |
| GGCCAGCAAUAUUACGGAGA | -0.788 ± 0.095 | -0.565 ± 0.086 |
| GGCCAGCAAUAUUACGGCUG | -1.41 ± 0.12 | -0.562 ± 0.2 |
| GGCCAGCAAUAUUACGGGCG | -2.13 ± 0.2 | -2.02 ± 0.26 |
| GGCCAGCAAUAUUACGGUUU | -0.995 ± 0.067 | -0.401 ± 0.074 |
| GGCCAGCAAUAUUACGUCCU | -1.47 ± 0.21 | -0.4 ± 0.17 |
| GGCCAGCAAUAUUACGUGCG | -1.17 ± 0.06 | -0.564 ± 0.079 |
| GGCCAGCAAUAUUACGUUCG | -2.66 ± 0.12 | -1.75 ± 0.11 |
| GGCCAGCAAUAUUACGUUGC | -1.58 ± 0.071 | -0.74 ± 0.081 |
| GGCCAGCAAUAUUACGUUUC | -1.4 ± 0.095 | -0.362 ± 0.089 |
| GGCGAGCAAUAUUACGAGAA | – | -2.57 ± 0.41 |
| GGCGAGCAAUAUUACGAUAG | -1.89 ± 0.18 | -2.67 ± 0.38 |
| GGCGAGCAAUAUUACGCCCA | -2.15 ± 0.42 | -0.478 ± 0.33 |
| GGCGAGCAAUAUUACGCGAA | -2.45 ± 0.2 | -1.33 ± 0.16 |
| GGCGAGCAAUAUUACGCUUU | -2.76 ± 0.23 | -1.22 ± 0.19 |
| GGCGAGCAAUAUUACGGAAA | -1.06 ± 0.48 | – |
| GGCGAGCAAUAUUACGGAAG | -4.21 ± 0.3 | -1.04 ± 0.2 |

| Sequence | self-splicing fitness (ln) (30 °C) | self-splicing fitness (ln) (37 °C) |
| --- | --- | --- |
| GGCGAGCAAUAUUACGGAUC | -0.443 ± 0.053 | 0.039 ± 0.075 |
| GGCGAGCAAUAUUACGGCUG | -0.315 ± 0.15 | -0.389 ± 0.28 |
| GGCGAGCAAUAUUACGGUUC | -1.46 ± 0.13 | -0.156 ± 0.13 |
| GGCGAGCAAUAUUACGGUUU | -1.06 ± 0.076 | 0.0414 ± 0.11 |
| GGCGAGCAAUAUUACGUACA | -1 ± 0.18 | 0.151 ± 0.15 |
| GGCGAGCAAUAUUACGUGCA | -0.905 ± 0.085 | -0.435 ± 0.098 |
| GGCGAGCAAUAUUACGUUAA | -2.51 ± 0.19 | -1.4 ± 0.2 |
| GGCGAGCAAUAUUACGUUAC | -3.24 ± 0.33 | -2.03 ± 0.32 |
| GGCUAGCAAUAUUACGAAAU | -1.67 ± 0.22 | 0.0518 ± 0.2 |
| GGCUAGCAAUAUUACGACGU | -0.0784 ± 0.15 | 1.15 ± 0.28 |
| GGCUAGCAAUAUUACGAGAC | -3.62 ± 0.44 | – |
| GGCUAGCAAUAUUACGAGCA | -0.589 ± 0.081 | -0.213 ± 0.12 |
| GGCUAGCAAUAUUACGAUUU | -0.855 ± 0.093 | 0.68 ± 0.12 |
| GGCUAGCAAUAUUACGCAGU | -1.78 ± 0.34 | – |
| GGCUAGCAAUAUUACGCGAA | -1.83 ± 0.085 | -1.27 ± 0.08 |
| GGCUAGCAAUAUUACGCUCC | -2.32 ± 0.26 | – |
| GGCUAGCAAUAUUACGGAAC | -1.09 ± 0.1 | -0.447 ± 0.13 |
| GGCUAGCAAUAUUACGGAUU | -0.369 ± 0.13 | 0.405 ± 0.16 |
| GGCUAGCAAUAUUACGGCCG | -1.45 ± 0.23 | -0.656 ± 0.22 |
| GGCUAGCAAUAUUACGGCUA | 0.235 ± 0.32 | -0.282 ± 0.42 |
| GGCUAGCAAUAUUACGGGCU | – | -3.05 ± 0.3 |
| GGCUAGCAAUAUUACGGGGU | -2.25 ± 0.1 | -1.29 ± 0.11 |
| GGCUAGCAAUAUUACGUGGG | -2.64 ± 0.17 | -1.91 ± 0.2 |
| GGCUAGCAAUAUUACGUGGU | -3.18 ± 0.23 | -2.13 ± 0.24 |
| GGCUAGCAAUAUUACGUUGA | -1.26 ± 0.13 | 0.455 ± 0.14 |

| Sequence | self-splicing fitness (ln) (30 °C) | self-splicing fitness (ln) (37 °C) |
| --- | --- | --- |
| GGCUAGCAAUAUUACGUUUG | -2.86 ± 0.11 | -1.45 ± 0.12 |
| GGGAAGCAAUAUUACGAAGA | – | -0.943 ± 0.23 |
| GGGAAGCAAUAUUACGAGAA | -2.16 ± 0.48 | -1.78 ± 0.36 |
| GGGAAGCAAUAUUACGAGUG | -3.06 ± 0.12 | -1.81 ± 0.11 |
| GGGAAGCAAUAUUACGCAAA | -1.9 ± 0.24 | -2 ± 0.17 |
| GGGAAGCAAUAUUACGCCAG | -3.13 ± 0.36 | – |
| GGGAAGCAAUAUUACGCCGG | -3.75 ± 0.29 | – |
| GGGAAGCAAUAUUACGCCUG | -0.0824 ± 0.11 | -0.324 ± 0.16 |
| GGGAAGCAAUAUUACGCGCU | -2.66 ± 0.28 | -0.954 ± 0.27 |
| GGGAAGCAAUAUUACGCUAA | -1.84 ± 0.2 | -0.363 ± 0.18 |
| GGGAAGCAAUAUUACGGAGU | -2.86 ± 0.12 | -2.05 ± 0.16 |
| GGGAAGCAAUAUUACGGCAU | -0.534 ± 0.16 | -0.344 ± 0.19 |
| GGGAAGCAAUAUUACGGGAA | -1.55 ± 0.45 | -1.14 ± 0.31 |
| GGGAAGCAAUAUUACGGGCU | -0.942 ± 0.12 | -0.846 ± 0.12 |
| GGGAAGCAAUAUUACGUAAA | -1.53 ± 0.21 | -1.56 ± 0.3 |
| GGGAAGCAAUAUUACGUAGC | -1.84 ± 0.18 | -1.37 ± 0.16 |
| GGGAAGCAAUAUUACGUGUU | -3.17 ± 0.21 | -1.9 ± 0.16 |
| GGGAAGCAAUAUUACGUUGU | -3.23 ± 0.22 | -2.31 ± 0.29 |
| GGGCAGCAAUAUUACGAAAA | -2.12 ± 0.38 | -2.31 ± 0.4 |
| GGGCAGCAAUAUUACGAACA | -0.951 ± 0.17 | -0.607 ± 0.18 |
| GGGCAGCAAUAUUACGAAUU | -0.318 ± 0.12 | -0.166 ± 0.17 |
| GGGCAGCAAUAUUACGACUA | -0.237 ± 0.094 | 0.125 ± 0.11 |
| GGGCAGCAAUAUUACGAGUA | -2.78 ± 0.42 | -2.53 ± 0.33 |
